Here are results for one substance from patent US5891439.

The target in the experiment is mouse CD8 (mouse) (UniProt P01731). In words: cell ELISA on dried mouse thymocytes containing CD8+ cells, detection with biotinylated MO3.

“native trypanosome-derived lymphocyte triggering factor (TLTF), antibody affinity purified (ligand)” showed a dilution of TLTF down to which a signal above background was obtained of 0.001 dilution.
